This note sets out measurements from EP4692114A1, “CALCITONIN ANALOGUE, AND DERIVATIVE THEREOF AND USE THEREOF” (Hangzhou Sciwind Biosciences Co., Ltd., priority 2023, dated 2024).

Sequences and labels used below:
T1: human amylin receptor (AMY3) on CHO-K1/Gal5/AMY3 cells (human, UniProt P30988 25-474; O60896 24-148)
T1 sequence (looked up) 1: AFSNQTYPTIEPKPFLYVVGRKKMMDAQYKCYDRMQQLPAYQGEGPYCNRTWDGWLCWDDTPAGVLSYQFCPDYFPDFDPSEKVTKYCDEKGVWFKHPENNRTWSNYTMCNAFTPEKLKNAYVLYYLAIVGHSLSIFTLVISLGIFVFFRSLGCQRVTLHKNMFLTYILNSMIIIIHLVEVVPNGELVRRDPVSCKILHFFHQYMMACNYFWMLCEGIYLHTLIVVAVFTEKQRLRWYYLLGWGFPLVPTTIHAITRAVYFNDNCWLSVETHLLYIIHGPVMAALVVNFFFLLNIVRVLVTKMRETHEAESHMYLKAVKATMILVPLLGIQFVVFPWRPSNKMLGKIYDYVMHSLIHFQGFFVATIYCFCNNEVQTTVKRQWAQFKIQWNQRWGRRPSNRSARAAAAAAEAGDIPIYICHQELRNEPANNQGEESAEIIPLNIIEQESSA
T1 sequence (looked up) 2: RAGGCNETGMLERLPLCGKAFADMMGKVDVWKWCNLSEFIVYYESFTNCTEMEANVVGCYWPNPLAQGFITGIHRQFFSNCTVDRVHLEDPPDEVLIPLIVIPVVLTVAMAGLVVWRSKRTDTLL

B1: calcitonin derivative M15 (peptide)
peptide: {C20 diacid-γGlu}-ASQLSTAVLGRLSQELHRLQDYPRTQVGSGSP-NH2
SMILES: CC(C)C[C@H](NC(=O)[C@H](CCCNC(=N)N)NC(=O)CNC(=O)[C@H](CC(C)C)NC(=O)[C@@H](NC(=O)[C@H](C)NC(=O)[C@@H](NC(=O)[C@H](CO)NC(=O)[C@H](CC(C)C)NC(=O)[C@H](CCC(N)=O)NC(=O)[C@H](CO)NC(=O)[C@H](C)NC(=O)CC[C@H](NC(=O)CCCCCCCCCCCCCCCCCCC(=O)O)C(=O)O)[C@@H](C)O)C(C)C)C(=O)N[C@@H](CO)C(=O)N[C@@H](CCC(N)=O)C(=O)N[C@@H](CCC(=O)O)C(=O)N[C@@H](CC(C)C)C(=O)N[C@@H](Cc1c[nH]cn1)C(=O)N[C@@H](CCCNC(=N)N)C(=O)N[C@@H](CC(C)C)C(=O)N[C@@H](CCC(N)=O)C(=O)N[C@@H](CC(=O)O)C(=O)N[C@@H](Cc1ccc(O)cc1)C(=O)N1CCC[C@H]1C(=O)N[C@@H](CCCNC(=N)N)C(=O)N[C@H](C(=O)N[C@@H](CCC(N)=O)C(=O)N[C@H](C(=O)NCC(=O)N[C@@H](CO)C(=O)NCC(=O)N[C@@H](CO)C(=O)N1CCC[C@H]1C(N)=O)C(C)C)[C@@H](C)O
B2: calcitonin derivative M63 (peptide)
peptide: {C20 diacid-γGlu-AEEA-AEEA-AEEA-AEEA}-ASQLSTAVLGRLSEELHRLQDYPRTDVGSGSP-NH2
SMILES: CC(C)C[C@H](NC(=O)[C@H](CCCNC(=N)N)NC(=O)CNC(=O)[C@H](CC(C)C)NC(=O)[C@@H](NC(=O)[C@H](C)NC(=O)[C@@H](NC(=O)[C@H](CO)NC(=O)[C@H](CC(C)C)NC(=O)[C@H](CCC(N)=O)NC(=O)[C@H](CO)NC(=O)[C@H](C)NC(=O)COCCOCCNC(=O)COCCOCCNC(=O)COCCOCCNC(=O)COCCOCCNC(=O)CC[C@H](NC(=O)CCCCCCCCCCCCCCCCCCC(=O)O)C(=O)O)[C@@H](C)O)C(C)C)C(=O)N[C@@H](CO)C(=O)N[C@@H](CCC(=O)O)C(=O)N[C@@H](CCC(=O)O)C(=O)N[C@@H](CC(C)C)C(=O)N[C@@H](Cc1c[nH]cn1)C(=O)N[C@@H](CCCNC(=N)N)C(=O)N[C@@H](CC(C)C)C(=O)N[C@@H](CCC(N)=O)C(=O)N[C@@H](CC(=O)O)C(=O)N[C@@H](Cc1ccc(O)cc1)C(=O)N1CCC[C@H]1C(=O)N[C@@H](CCCNC(=N)N)C(=O)N[C@H](C(=O)N[C@@H](CC(=O)O)C(=O)N[C@H](C(=O)NCC(=O)N[C@@H](CO)C(=O)NCC(=O)N[C@@H](CO)C(=O)N1CCC[C@H]1C(N)=O)C(C)C)[C@@H](C)O
B3: calcitonin derivative M14 (peptide)
peptide: {C20 diacid-γGlu}-ASQLSTAVLGRLSQELHRLEEYPRTDVGSGSP-NH2
SMILES: CC(C)C[C@H](NC(=O)[C@H](CCCNC(=N)N)NC(=O)CNC(=O)[C@H](CC(C)C)NC(=O)[C@@H](NC(=O)[C@H](C)NC(=O)[C@@H](NC(=O)[C@H](CO)NC(=O)[C@H](CC(C)C)NC(=O)[C@H](CCC(N)=O)NC(=O)[C@H](CO)NC(=O)[C@H](C)NC(=O)CC[C@H](NC(=O)CCCCCCCCCCCCCCCCCCC(=O)O)C(=O)O)[C@@H](C)O)C(C)C)C(=O)N[C@@H](CO)C(=O)N[C@@H](CCC(N)=O)C(=O)N[C@@H](CCC(=O)O)C(=O)N[C@@H](CC(C)C)C(=O)N[C@@H](Cc1c[nH]cn1)C(=O)N[C@@H](CCCNC(=N)N)C(=O)N[C@@H](CC(C)C)C(=O)N[C@@H](CCC(=O)O)C(=O)N[C@@H](CCC(=O)O)C(=O)N[C@@H](Cc1ccc(O)cc1)C(=O)N1CCC[C@H]1C(=O)N[C@@H](CCCNC(=N)N)C(=O)N[C@H](C(=O)N[C@@H](CC(=O)O)C(=O)N[C@H](C(=O)NCC(=O)N[C@@H](CO)C(=O)NCC(=O)N[C@@H](CO)C(=O)N1CCC[C@H]1C(N)=O)C(C)C)[C@@H](C)O
B4: calcitonin derivative M29 (peptide)
peptide: {C20 diacid-γGlu}-ASQLSTSVLGRLSQELHRLQDYPRTDVGSGSP-NH2
SMILES: CC(C)C[C@H](NC(=O)[C@H](CCCNC(=N)N)NC(=O)CNC(=O)[C@H](CC(C)C)NC(=O)[C@@H](NC(=O)[C@H](CO)NC(=O)[C@@H](NC(=O)[C@H](CO)NC(=O)[C@H](CC(C)C)NC(=O)[C@H](CCC(N)=O)NC(=O)[C@H](CO)NC(=O)[C@H](C)NC(=O)CC[C@H](NC(=O)CCCCCCCCCCCCCCCCCCC(=O)O)C(=O)O)[C@@H](C)O)C(C)C)C(=O)N[C@@H](CO)C(=O)N[C@@H](CCC(N)=O)C(=O)N[C@@H](CCC(=O)O)C(=O)N[C@@H](CC(C)C)C(=O)N[C@@H](Cc1c[nH]cn1)C(=O)N[C@@H](CCCNC(=N)N)C(=O)N[C@@H](CC(C)C)C(=O)N[C@@H](CCC(N)=O)C(=O)N[C@@H](CC(=O)O)C(=O)N[C@@H](Cc1ccc(O)cc1)C(=O)N1CCC[C@H]1C(=O)N[C@@H](CCCNC(=N)N)C(=O)N[C@H](C(=O)N[C@@H](CC(=O)O)C(=O)N[C@H](C(=O)NCC(=O)N[C@@H](CO)C(=O)NCC(=O)N[C@@H](CO)C(=O)N1CCC[C@H]1C(N)=O)C(C)C)[C@@H](C)O
B5: calcitonin derivative M53 (peptide)
peptide: {C20 diacid-βAsp}-ASQLSTAVLGRLSEELHRLQDYPRTDVGSGSP-NH2
SMILES: CC(C)C[C@H](NC(=O)[C@H](CCCNC(=N)N)NC(=O)CNC(=O)[C@H](CC(C)C)NC(=O)[C@@H](NC(=O)[C@H](C)NC(=O)[C@@H](NC(=O)[C@H](CO)NC(=O)[C@H](CC(C)C)NC(=O)[C@H](CCC(N)=O)NC(=O)[C@H](CO)NC(=O)[C@H](C)NC(=O)C[C@H](NC(=O)CCCCCCCCCCCCCCCCCCC(=O)O)C(=O)O)[C@@H](C)O)C(C)C)C(=O)N[C@@H](CO)C(=O)N[C@@H](CCC(=O)O)C(=O)N[C@@H](CCC(=O)O)C(=O)N[C@@H](CC(C)C)C(=O)N[C@@H](Cc1c[nH]cn1)C(=O)N[C@@H](CCCNC(=N)N)C(=O)N[C@@H](CC(C)C)C(=O)N[C@@H](CCC(N)=O)C(=O)N[C@@H](CC(=O)O)C(=O)N[C@@H](Cc1ccc(O)cc1)C(=O)N1CCC[C@H]1C(=O)N[C@@H](CCCNC(=N)N)C(=O)N[C@H](C(=O)N[C@@H](CC(=O)O)C(=O)N[C@H](C(=O)NCC(=O)N[C@@H](CO)C(=O)NCC(=O)N[C@@H](CO)C(=O)N1CCC[C@H]1C(N)=O)C(C)C)[C@@H](C)O

*1 amine or outer side, *2 acyl side, *3 side chain or, on linkers, in order; H or OH if unused. Primed or numbered codes have the meaning given here. The star is where a group is joined. C20 diacid = O=C(O)CCCCCCCCCCCCCCCCCCC(=O)*; γGlu = O=C(O)[C@H](CCC(=O)[*:2])N[*:1]; βAsp = O=C(O)[C@H](CC(=O)[*:2])N[*:1]; Inp′ = not defined here; AEEA = NCCOCCOCC(=O)O

This assay concerns the target T1, human amylin receptor (AMY3) on …. The assay can be described thus: cell-based or functional assay.
In the case of B1, the “EC50/nM, CRE-luciferase in amylin receptor/CRE-luc CHO cells” value amounted to 0.016 nM.

Turning to {C20 diacid-Inp′-AEEA-AEEA}-ASQLSTAVLGRLSEELHRLQDYPRTDVGSGSP-NH2 [calcitonin derivative M62], the “EC50/nM, CRE-luciferase in amylin receptor/CRE-luc CHO cells” value came to 0.016 nM.

On to B2, for which the “EC50/nM, CRE-luciferase in amylin receptor/CRE-luc CHO cells” value was found to be 0.037 nM.

B3: the “EC50/nM, CRE-luciferase in amylin receptor/CRE-luc CHO cells” value was found to be 0.017 nM.

In the case of B4, the “EC50/nM, CRE-luciferase in amylin receptor/CRE-luc CHO cells” value was found to be 0.017 nM.

In the case of {C20 diacid-Inp′}-ASQLSTAVLGRLSDELHRLQDYPRTDVGSGSP-NH2 [calcitonin derivative M47], the “EC50/nM, CRE-luciferase in amylin receptor/CRE-luc CHO cells” value amounted to 0.082 nM.

For B5, the “EC50/nM, CRE-luciferase in amylin receptor/CRE-luc CHO cells” value is 0.017 nM.
